What was measured:
Settings in all cases: one partner purified
tetanus toxoid [1] = target: T1, tetanus toxoid (Clostridium tetani, strain  …, UniProt P04958); assay: ELISA
T1 sequence (P04958 1-457, chain 1 of 2): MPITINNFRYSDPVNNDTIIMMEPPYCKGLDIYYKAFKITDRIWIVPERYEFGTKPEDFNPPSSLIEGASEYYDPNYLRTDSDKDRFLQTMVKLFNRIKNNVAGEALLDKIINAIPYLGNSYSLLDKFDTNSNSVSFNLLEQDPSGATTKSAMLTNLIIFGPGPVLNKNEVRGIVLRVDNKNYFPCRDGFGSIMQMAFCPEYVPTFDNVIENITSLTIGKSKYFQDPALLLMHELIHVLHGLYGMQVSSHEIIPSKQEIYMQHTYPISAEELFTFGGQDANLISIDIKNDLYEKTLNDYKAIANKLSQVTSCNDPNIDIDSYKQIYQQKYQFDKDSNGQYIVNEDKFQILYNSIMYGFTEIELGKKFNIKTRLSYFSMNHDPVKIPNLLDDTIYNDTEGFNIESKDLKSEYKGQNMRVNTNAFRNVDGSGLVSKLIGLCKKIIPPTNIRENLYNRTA
T1 sequence (P04958 458-1315, chain 2 of 2): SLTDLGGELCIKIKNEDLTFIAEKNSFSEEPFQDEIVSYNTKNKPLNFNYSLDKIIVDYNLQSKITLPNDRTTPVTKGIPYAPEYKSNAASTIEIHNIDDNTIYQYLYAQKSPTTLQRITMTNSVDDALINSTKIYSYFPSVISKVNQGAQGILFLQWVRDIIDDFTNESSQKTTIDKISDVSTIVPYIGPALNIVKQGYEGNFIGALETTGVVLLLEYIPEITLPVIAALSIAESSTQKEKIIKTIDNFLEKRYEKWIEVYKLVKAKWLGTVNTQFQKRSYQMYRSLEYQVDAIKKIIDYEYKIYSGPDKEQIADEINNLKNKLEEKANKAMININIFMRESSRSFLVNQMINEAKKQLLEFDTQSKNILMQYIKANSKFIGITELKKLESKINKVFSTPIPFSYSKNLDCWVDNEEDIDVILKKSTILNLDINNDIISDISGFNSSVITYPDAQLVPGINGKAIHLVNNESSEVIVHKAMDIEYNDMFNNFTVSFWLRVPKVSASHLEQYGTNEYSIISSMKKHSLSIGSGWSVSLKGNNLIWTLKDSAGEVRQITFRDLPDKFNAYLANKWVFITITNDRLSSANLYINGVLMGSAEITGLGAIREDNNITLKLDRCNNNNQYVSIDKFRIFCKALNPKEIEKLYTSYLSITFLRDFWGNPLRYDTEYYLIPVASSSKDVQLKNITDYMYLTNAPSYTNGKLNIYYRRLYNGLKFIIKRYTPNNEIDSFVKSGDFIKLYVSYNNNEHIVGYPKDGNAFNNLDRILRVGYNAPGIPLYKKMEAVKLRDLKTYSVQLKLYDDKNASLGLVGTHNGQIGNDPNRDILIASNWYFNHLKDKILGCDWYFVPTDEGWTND

tetanus toxoid [2] = target: T1, tetanus toxoid; assay: SPR
tetanus toxoid [3] = target: tetanus toxoid (Clostridium tetani, strain  …, UniProt P04958); assay: SPR; remark: listed apart in the source
Target sequence in this assay (P04958 whole entry): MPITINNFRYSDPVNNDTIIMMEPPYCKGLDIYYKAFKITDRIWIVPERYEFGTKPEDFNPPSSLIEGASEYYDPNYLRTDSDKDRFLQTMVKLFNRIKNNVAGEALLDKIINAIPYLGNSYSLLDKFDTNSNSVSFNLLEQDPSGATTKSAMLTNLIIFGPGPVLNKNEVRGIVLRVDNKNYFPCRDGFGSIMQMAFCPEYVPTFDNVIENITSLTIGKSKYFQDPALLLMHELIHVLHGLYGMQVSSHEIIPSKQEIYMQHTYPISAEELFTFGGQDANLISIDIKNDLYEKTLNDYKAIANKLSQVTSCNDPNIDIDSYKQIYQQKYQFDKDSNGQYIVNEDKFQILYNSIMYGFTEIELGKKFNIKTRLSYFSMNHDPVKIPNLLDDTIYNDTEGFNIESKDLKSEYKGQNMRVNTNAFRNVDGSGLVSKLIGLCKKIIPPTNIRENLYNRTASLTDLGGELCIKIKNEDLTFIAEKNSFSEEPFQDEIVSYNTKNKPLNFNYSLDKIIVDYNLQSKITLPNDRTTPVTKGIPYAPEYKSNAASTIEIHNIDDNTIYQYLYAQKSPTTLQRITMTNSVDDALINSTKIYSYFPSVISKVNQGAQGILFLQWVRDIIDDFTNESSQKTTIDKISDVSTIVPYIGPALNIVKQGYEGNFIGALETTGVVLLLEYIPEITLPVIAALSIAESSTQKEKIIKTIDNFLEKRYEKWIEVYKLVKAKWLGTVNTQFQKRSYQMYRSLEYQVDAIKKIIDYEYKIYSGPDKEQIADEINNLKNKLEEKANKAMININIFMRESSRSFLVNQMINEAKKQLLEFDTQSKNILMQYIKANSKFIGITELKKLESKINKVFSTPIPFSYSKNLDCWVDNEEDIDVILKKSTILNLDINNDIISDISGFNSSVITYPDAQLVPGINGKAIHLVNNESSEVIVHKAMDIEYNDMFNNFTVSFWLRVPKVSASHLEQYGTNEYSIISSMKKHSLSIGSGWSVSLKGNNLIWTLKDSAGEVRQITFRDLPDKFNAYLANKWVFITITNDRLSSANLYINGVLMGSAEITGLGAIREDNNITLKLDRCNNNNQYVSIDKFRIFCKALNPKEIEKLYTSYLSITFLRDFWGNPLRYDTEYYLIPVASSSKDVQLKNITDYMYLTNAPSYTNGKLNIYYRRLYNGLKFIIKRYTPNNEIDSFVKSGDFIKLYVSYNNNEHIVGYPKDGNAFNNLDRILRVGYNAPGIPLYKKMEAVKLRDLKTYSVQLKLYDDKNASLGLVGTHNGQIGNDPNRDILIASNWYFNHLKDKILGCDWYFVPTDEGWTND

B1: anti-TT mAb of hybridoma P4T29115 (antibody, V domains shown)
VH: EVKLVESGGGLVKPGGSLKLSCAASGITFSNYAMSWVRQTPEKRLEWVATISSGGSYIYYPDSVKGRFTISRDNAKNTLYLQMSSLRSEDTAVYFCARLGYDGVALDYWGQGTSVTVSS
VL: ASLGDRVSISCRASQDIRNYLNWYQQRPDGTVKLLIYYTSRLHSGVPSRFSGSGSGTDYSLTISNLEQEDIATYFCQQGNTFPWTFGGGTKLEIK
B1: binds (tetanus toxoid [1]).

B2: phage display isolate S917 (Fab, V domains shown)
VH: LVKPGGSLKLSCAVSGFNFSNYAMSWVRQTPEKRLEWVATISSGGSYIYYPDSVKGRFTISRDNAKNTLYLQMSSLRSEDTAMYYCARQDRYGFALDYWGQGTSVTVSS
VL: SLSASLGDRVTISCRASQDINNYLNWYQQKPDGTIRLLIYYTSRLHSGVPSRFSGSGSGTDYSLTITNLEQEDFATYFCQQGNTLPWAFGGGTKLEIK
B2: binds (tetanus toxoid [1]).

B3: anti-TT mAb of hybridoma 24 (antibody, V domains shown)
VH: VQLQQTGPGLVQPSQSLSITCTVSAFSLTNYGIHWVRQSPGKGLEWLGVIWTGGSTDYNAPFISRLSISKDNSKSQVFFKMNSLQANDTAIYYCVRDGYRVMDYWGQGTSVTVSS
VL: LSASVGETVTITCRASGNIHNYLAWYQQKQGKSPQLLVYNAKTLTDGVPSRFSGSGSGTQHSLKINSLQPEDFGSYYCQHFWTIPWTFGGGTKLEIK
Work on B3 yielded a Kd (tetanus toxoid [2]) of 1.9 nM, a koff (tetanus toxoid [2]) of 0.00016 s⁻¹ and a kon (tetanus toxoid [2]) of 86000 M⁻¹ s⁻¹.

B4: TT-specific Fab S10 from the phage display library (Fab, V domains shown)
VH: LVAPSQSLSITCTVSGFSLTDYGVNWVRQPPGKGLEWLGMIWGDGSTDYNSALKSRLSISKDNSKSQVFLKMNSLQTDDTARYFCVRTFHYGNYFDYWGQGTTLTVSS
VL: TMAASPGEKITITCSASSSISSNYLHWYQQKPGFSPKLLIYRTSNLASGVPARFSGSGSGTSYSLTIGTMEAEDVATYYCQQGSSIPLTFGAGTKLELK
For B4, the Kd (tetanus toxoid [3]) was 12 nM, the koff (tetanus toxoid [3]) was 0.00032 s⁻¹ and the kon (tetanus toxoid [3]) was 26000 M⁻¹ s⁻¹.

B5: anti-TT mAb of hybridoma 14 (antibody, V domains shown)
VH: VQLQESGPGLVAPSQSLSITCTVSGFSLTSYGVHWVRQPPGKGLEWLGVIWPGGSTNYNSALMSRLSISQDNSKSQVFLKMNSLQIDDTAMYHCARDFQYGNYFDYWGQGTSLTVSS
VL: MPASPGEKITITCSASSSISSNYLHWYQQKPGFSPKLLIYRTSNLASGVPARFSGSGSGTSYSLTVGTMEAEDVATYYCQQGTSIPTFGAGTKLELK
Work on B5 yielded a Kd (tetanus toxoid [2]) of 3.1 nM, a koff (tetanus toxoid [2]) of 0.00029 s⁻¹ and a kon (tetanus toxoid [2]) of 94000 M⁻¹ s⁻¹.

B6: TT-specific Fab D5O 94 from the phage display library (Fab, V domains shown)
VH: LVKPGASVKIPCKASGYTFTDYNIDWVKQSHGKSLEWIGDINPNNGGTIYNQKFKDKATLTVDKSSSTAYMELRSLTSEDTAVYYCARDFYYGRYFDYWGQGTTLTVSS
VL: TMAASPGEKITITCSATSSISSNYLHWYQQKPGFSPKLLIYRTSNLASGVPARFSGSGSGTSYSLTIGTMEAEDVATYYCQQGSNIPTFGSGTKLELK
For B6, the Kd (tetanus toxoid [3]) was 4.8 nM, the koff (tetanus toxoid [3]) was 0.00037 s⁻¹ and the kon (tetanus toxoid [3]) was 78000 M⁻¹ s⁻¹.

B7: phage display isolate S546 (Fab, V domains shown)
VH: LVAPSQSLSITCTVSGFSLTSYGVHWVRQPPGKGLEWLGVIWPGGSTNYNSALMSRLSISKDNSKSQVFLKMNSLQTDDTAMYYCARDFQYGNYFDYWGQGTTLTVSS
VL: TMAASPGEKITITCSASSSISSNYLHWYQQKPGFSPKLLIYRTSNLASGVPTRFSGSGSGTSYSLTIGTMEAEDVATYYCQQGSSISTFGAGTKLELK
B7: binds (tetanus toxoid [1]).

— article PMC4182348 (PLoS ONE, 2014)
